# Like-named read-outs stand apart in the source and are kept apart here.
# Experiments:
# Test in all cases: EMSA
# [1] = target: T1, HU alpha-beta heterodimer (Escherichia coli, UniProt P0ACF0;P0ACF4 1-90;1-90)
# [2] = target: T1, HU alpha-beta heterodimer; remark: listed apart in the source
# [3] = target: T1, HU alpha-beta heterodimer; remark: listed apart in the source
# [4] = target: T1, HU alpha-beta heterodimer; remark: listed apart in the source
# [5] = target: T1, HU alpha-beta heterodimer; remark: listed apart in the source
# [6] = target: T1, HU alpha-beta heterodimer; remark: listed apart in the source
# [7] = target: T1, HU alpha-beta heterodimer; remark: listed apart in the source
# [8] = target: T1, HU alpha-beta heterodimer; remark: listed apart in the source
# [9] = target: T1, HU alpha-beta heterodimer; remark: listed apart in the source
# [10] = target: T1, HU alpha-beta heterodimer; remark: listed apart in the source
# T1 sequence (P0ACF0 whole entry, chain 1 of 2): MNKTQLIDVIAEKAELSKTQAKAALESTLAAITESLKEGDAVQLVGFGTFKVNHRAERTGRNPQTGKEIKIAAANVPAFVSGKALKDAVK
# T1 sequence (P0ACF4 whole entry, chain 2 of 2): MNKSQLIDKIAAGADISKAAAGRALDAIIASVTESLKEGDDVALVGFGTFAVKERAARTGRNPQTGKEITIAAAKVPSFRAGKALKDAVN
binder,measurement,setting,value
AGTCTAGAGTGCAGTTGAGTCCTTGCTACGACGGATCCCTTAGG (ssDNA) [ssDNA D-44],Kd,[1],40 nM
mismatch 4 (dsDNA) DNA 1: AGTCTAGACTGCAGTTGAGTCCTTGCTAGGACGGATCCCT DNA 2: AGGGATCCGTCCTAGCAAATGTTCAACTGCAGTCTAGACT,Kd,[2],21 nM
mismatch 8 (dsDNA) DNA 1: AGTCTAGACTGCAGTTGAGTCCTTGCTAGGACGGATCCCT DNA 2: AGGGATCCGTCCTAGCTGATGTAGAACTGCAGTCTAGACT,Kd,[3],6 nM
nicked 40 (dsDNA) DNA 1: AGTCTAGAGTGCAGTTGAGTCCTTGCTACGACGGATCCCT DNA 2: AGGGATCCGTCGTAGCAAGG DNA 3: ACTCAACTGCACTCTAGACT,Kd,[4],3 nM
mismatch 6 (dsDNA) DNA 1: AGTCTAGACTGCAGTTGAGTCCTTGCTAGGACGGATCCCT DNA 2: AGGGATCCGTCCTAGCAGATGTACAACTGCAGTCTAGACT,Kd,[3],6 nM
mismatch 10 (dsDNA) DNA 1: AGTCTAGACTGCAGTTGAGTCCTTGCTAGGACGGATCCCT DNA 2: AGGGATCCGTCCTAGTTGATGTAGCACTGCAGTCTAGACT,Kd,[3],6 nM
dsDNA 40 (dsDNA) DNA 1: AGTCTAGAGTGCAGTTGAGTCCTTGCTACGACGGATCCCT DNA 2: AGGGATCCGTCGTAGCAAGGACTCAACTGCACTCTAGACT,Kd,[5],7 nM
AGTCTAGAGTGCAGTTGAGTCCTTGCTACGACGGATCCCT (ssDNA) [ssDNA D-40],Kd,[6],54 nM
AGTCTAGAGTGCAGTTGAGTCCTTGCTA (ssDNA) [ssDNA D-28],Kd,[7],755 nM
AGTCTAGAGTGCAGTTGAGTCCTTGCTACGAC (ssDNA) [ssDNA D-32],Kd,[8],114 nM
AGTCTAGAGTGCAGTTGAGTCCTTGCTACGACGGATCCCTTAGGTCAG (ssDNA) [ssDNA D-48],Kd,[9],41 nM
AGTCTAGAGTGCAGTTGAGTCCTTGCTACGACGGAT (ssDNA) [ssDNA D-36],Kd,[9],80 nM
AGTCTAGAGTGCAGTTGAGTCCTT (ssDNA) [ssDNA D-24],binding result,[10],binds
